# Measured values as given in US20200079833A1 (AstraZeneca / MedImmune, published 2020).
# Starred links: 1 amine or outer side, 2 acyl side, 3 side chain; linkers in the order of their positions; H or OH if unused. Non-standard residues stand in square brackets, D forms with d. Groups on a side chain read outwards from the residue. Primed or numbered codes have the meaning given here. No end group written: not given here. *: point of attachment. γGlu = O=C(O)[C@H](CCC(=O)[*:2])N[*:1]; αMeF = C[C@](N)(Cc1ccccc1)C(=O)O; αMeK = C[C@](N)(CCCCN)C(=O)O; Lauroyl = CCCCCCCCCCCC(=O)*; αMeS = C[C@](N)(CO)C(=O)O; PEG2′ = not defined here; Aib = CC(C)(N)C(=O)O
# T1: glucose-dependent insulinotropic peptide (gastric inhibitory polypeptide) receptor (GIPR), primary cAMP assay … (human, UniProt P48546 22-466)
# T1 sequence (looked up): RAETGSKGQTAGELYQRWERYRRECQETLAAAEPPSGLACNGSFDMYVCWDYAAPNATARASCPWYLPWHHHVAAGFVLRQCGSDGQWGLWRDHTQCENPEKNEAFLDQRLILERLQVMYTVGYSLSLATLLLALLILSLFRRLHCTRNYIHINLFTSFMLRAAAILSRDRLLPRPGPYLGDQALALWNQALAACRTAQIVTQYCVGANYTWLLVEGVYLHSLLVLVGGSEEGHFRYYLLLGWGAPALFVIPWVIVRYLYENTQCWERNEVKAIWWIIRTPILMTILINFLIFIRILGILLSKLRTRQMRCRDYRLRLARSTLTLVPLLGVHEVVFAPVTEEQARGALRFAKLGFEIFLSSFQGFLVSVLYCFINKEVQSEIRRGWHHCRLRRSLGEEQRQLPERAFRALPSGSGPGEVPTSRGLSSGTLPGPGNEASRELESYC
# Target: GLP-1 receptor (GLP-1R), primary cAMP assay cell line (human, UniProt P43220 24-463)
# Test: cell-based or functional assay
Binder,"cAMP Primary assay EC50, Mean pM GLP-1R [pM]","cAMP Primary assay EC50, n1 [nM]","cAMP Primary assay EC50, n2 [nM]"
H[Aib]EGS[αMeF]TSDV[αMeS]SK([PEG2′-PEG2′-γGlu-Lauroyl])LEGEK([PEG2′-PEG2′-γGlu-Lauroyl])A[αMeK]EFIAFK([PEG2′-PEG2′-γGlu-Lauroyl])VEGG-NH2 [SEQ ID NO: 481],143,0.137,0.149
H[Aib]EGS[αMeF]TSDVSK([PEG2′-PEG2′-γGlu-Lauroyl])YLEGEAA[αMeK]K([PEG2′-PEG2′-γGlu-Lauroyl])FIAFK([PEG2′-PEG2′-γGlu-Lauroyl])VEGG-NH2 [SEQ ID NO: 478],118,0.103,0.134
H[Aib]EGS[αMeF]TSDV[αMeS]SK([PEG2′-PEG2′-γGlu-Lauroyl])LEK([PEG2′-PEG2′-γGlu-Lauroyl])EAA[αMeK]EFIAFK([PEG2′-PEG2′-γGlu-Lauroyl])VEGG-NH2 [SEQ ID NO: 479],186,0.132,0.239
H[Aib]EGS[αMeF]TSDVSK([PEG2′-PEG2′-γGlu-Lauroyl])YLEGEK([PEG2′-PEG2′-γGlu-Lauroyl])A[αMeK]EFIAFK([PEG2′-PEG2′-γGlu-Lauroyl])VEGG-NH2 [SEQ ID NO: 477],264,0.226,0.302

# Next, values leading:
"cAMP Primary assay EC50, Mean pM GLP-1R [pM]","cAMP Primary assay EC50, n1 [nM]","cAMP Primary assay EC50, n2 [nM]",Binder
196,0.167,0.224,H[Aib]EGS[αMeF]TSDV[αMeS]SYK([PEG2′-PEG2′-γGlu-Lauroyl])EGEK([PEG2′-PEG2′-γGlu-Lauroyl])A[αMeK]EFIAFK([PEG2′-PEG2′-γGlu-Lauroyl])VEGG-NH2 [SEQ ID NO: 485]
166,0.163,0.168,H[Aib]EGS[αMeF]TSDV[αMeS]SYK([PEG2′-PEG2′-γGlu-Lauroyl])EGK([PEG2′-PEG2′-γGlu-Lauroyl])AA[αMeK]EFIAFK([PEG2′-PEG2′-γGlu-Lauroyl])VEGG-NH2 [SEQ ID NO: 484]
244,0.229,0.258,H[Aib]EGS[αMeF]TSDV[αMeS]SYK([PEG2′-PEG2′-γGlu-Lauroyl])EK([PEG2′-PEG2′-γGlu-Lauroyl])EAA[αMeK]EFIAFK([PEG2′-PEG2′-γGlu-Lauroyl])VEGG-NH2 [SEQ ID NO: 483]

# Target: glucagon receptor (GCGR), primary cAMP assay cell line (human, UniProt P47871 26-477)
# Sequence (P47871 26-477): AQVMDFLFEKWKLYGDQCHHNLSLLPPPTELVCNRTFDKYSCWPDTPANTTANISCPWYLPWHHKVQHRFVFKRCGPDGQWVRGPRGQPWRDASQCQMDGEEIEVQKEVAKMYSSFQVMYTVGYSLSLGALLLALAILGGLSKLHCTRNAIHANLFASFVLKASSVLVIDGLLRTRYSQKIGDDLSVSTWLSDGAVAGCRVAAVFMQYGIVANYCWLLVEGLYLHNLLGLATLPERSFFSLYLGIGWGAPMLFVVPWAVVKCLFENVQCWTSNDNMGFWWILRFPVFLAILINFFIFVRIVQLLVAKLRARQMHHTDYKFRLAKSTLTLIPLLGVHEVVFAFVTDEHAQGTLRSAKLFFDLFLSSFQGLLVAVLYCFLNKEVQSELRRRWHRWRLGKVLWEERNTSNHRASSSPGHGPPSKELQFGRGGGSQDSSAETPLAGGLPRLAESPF
# Test: cell-based or functional assay
Binder,"cAMP Primary assay EC50, n1 [nM]","cAMP Primary assay EC50, n2 [nM]"
H[Aib]EGS[αMeF]TSDV[αMeS]SK([PEG2′-PEG2′-γGlu-Lauroyl])LEGEK([PEG2′-PEG2′-γGlu-Lauroyl])A[αMeK]EFIAFK([PEG2′-PEG2′-γGlu-Lauroyl])VEGG-NH2 [SEQ ID NO: 481],19.8,19.8
H[Aib]EGS[αMeF]TSDVSK([PEG2′-PEG2′-γGlu-Lauroyl])YLEGEAA[αMeK]K([PEG2′-PEG2′-γGlu-Lauroyl])FIAFK([PEG2′-PEG2′-γGlu-Lauroyl])VEGG-NH2 [SEQ ID NO: 478],19.8,19.8
H[Aib]EGS[αMeF]TSDV[αMeS]SK([PEG2′-PEG2′-γGlu-Lauroyl])LEK([PEG2′-PEG2′-γGlu-Lauroyl])EAA[αMeK]EFIAFK([PEG2′-PEG2′-γGlu-Lauroyl])VEGG-NH2 [SEQ ID NO: 479],19.8,19.8
H[Aib]EGS[αMeF]TSDVSK([PEG2′-PEG2′-γGlu-Lauroyl])YLEGEK([PEG2′-PEG2′-γGlu-Lauroyl])A[αMeK]EFIAFK([PEG2′-PEG2′-γGlu-Lauroyl])VEGG-NH2 [SEQ ID NO: 477],19.6,19.6

# Next, values leading:
"cAMP Primary assay EC50, n1 [nM]","cAMP Primary assay EC50, n2 [nM]",Binder
19.6,19.6,H[Aib]EGS[αMeF]TSDV[αMeS]SYK([PEG2′-PEG2′-γGlu-Lauroyl])EGEK([PEG2′-PEG2′-γGlu-Lauroyl])A[αMeK]EFIAFK([PEG2′-PEG2′-γGlu-Lauroyl])VEGG-NH2 [SEQ ID NO: 485]
19.9,19.9,H[Aib]EGS[αMeF]TSDV[αMeS]SYK([PEG2′-PEG2′-γGlu-Lauroyl])EGK([PEG2′-PEG2′-γGlu-Lauroyl])AA[αMeK]EFIAFK([PEG2′-PEG2′-γGlu-Lauroyl])VEGG-NH2 [SEQ ID NO: 484]
19.6,19.6,H[Aib]EGS[αMeF]TSDV[αMeS]SYK([PEG2′-PEG2′-γGlu-Lauroyl])EK([PEG2′-PEG2′-γGlu-Lauroyl])EAA[αMeK]EFIAFK([PEG2′-PEG2′-γGlu-Lauroyl])VEGG-NH2 [SEQ ID NO: 483]

# Target: T1, glucose-dependent insulinotropic …
# Test: cell-based or functional assay
Binder,"cAMP Primary assay EC50, n1 [nM]","cAMP Primary assay EC50, n2 [nM]"
H[Aib]EGS[αMeF]TSDV[αMeS]SK([PEG2′-PEG2′-γGlu-Lauroyl])LEGEK([PEG2′-PEG2′-γGlu-Lauroyl])A[αMeK]EFIAFK([PEG2′-PEG2′-γGlu-Lauroyl])VEGG-NH2 [SEQ ID NO: 481],19.8,19.8
H[Aib]EGS[αMeF]TSDVSK([PEG2′-PEG2′-γGlu-Lauroyl])YLEGEAA[αMeK]K([PEG2′-PEG2′-γGlu-Lauroyl])FIAFK([PEG2′-PEG2′-γGlu-Lauroyl])VEGG-NH2 [SEQ ID NO: 478],19.8,19.8
H[Aib]EGS[αMeF]TSDV[αMeS]SK([PEG2′-PEG2′-γGlu-Lauroyl])LEK([PEG2′-PEG2′-γGlu-Lauroyl])EAA[αMeK]EFIAFK([PEG2′-PEG2′-γGlu-Lauroyl])VEGG-NH2 [SEQ ID NO: 479],19.8,19.8
H[Aib]EGS[αMeF]TSDVSK([PEG2′-PEG2′-γGlu-Lauroyl])YLEGEK([PEG2′-PEG2′-γGlu-Lauroyl])A[αMeK]EFIAFK([PEG2′-PEG2′-γGlu-Lauroyl])VEGG-NH2 [SEQ ID NO: 477],19.6,19.6

# Other lines, results leading:
"cAMP Primary assay EC50, n1 [nM]","cAMP Primary assay EC50, n2 [nM]",Binder
19.6,19.6,H[Aib]EGS[αMeF]TSDV[αMeS]SYK([PEG2′-PEG2′-γGlu-Lauroyl])EGEK([PEG2′-PEG2′-γGlu-Lauroyl])A[αMeK]EFIAFK([PEG2′-PEG2′-γGlu-Lauroyl])VEGG-NH2 [SEQ ID NO: 485]
19.9,19.9,H[Aib]EGS[αMeF]TSDV[αMeS]SYK([PEG2′-PEG2′-γGlu-Lauroyl])EGK([PEG2′-PEG2′-γGlu-Lauroyl])AA[αMeK]EFIAFK([PEG2′-PEG2′-γGlu-Lauroyl])VEGG-NH2 [SEQ ID NO: 484]
19.6,19.6,H[Aib]EGS[αMeF]TSDV[αMeS]SYK([PEG2′-PEG2′-γGlu-Lauroyl])EK([PEG2′-PEG2′-γGlu-Lauroyl])EAA[αMeK]EFIAFK([PEG2′-PEG2′-γGlu-Lauroyl])VEGG-NH2 [SEQ ID NO: 483]
